The data set concerns MS2 coat protein. As to the kind of experiment: apparent KD of MS2 coat protein; designed switch direction (-1 OFF switch, 1 ON switch): -1; higher = weaker reporter binding. The method, boiled down: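 The apparent KD reported per design is the median over clusters of curve fits to normalised cluster fluorescence. The RNA switches were transcribed on Illumina chips by stalled E. coli RNA polymerase. SNAP-549-labelled MS2 coat protein was titrated from 0.7 or 1.5 nM, doubling up to 3 µM, in Tris-HCl pH 7.5 buffer containing KCl, MgCl2, BSA, DTT, tRNA and Tween-20, with no input, 200 uM small-molecule ligand, or an oligonucleotide input.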

The mark [1] stands for this setting: Eterna round: R95, input ligand: FMN 200 uM.
The mark [2] stands for this setting: Eterna round: R95, input ligand: microRNA oligo, concentration not stated.
Setting [3] is: Eterna round: R95, input ligand: none.
[4] abbreviates: input ligand: microRNA oligo, concentration not stated.

On to “AAGUAUAGAGGAUAUAGUAGUUACAACAUGAGGAUCACCCAUGUUCUUCAUAACGUAGAUCUAGAAGGCUGAUAAA [EX-5 Malc#29] (puzzle: Exclusion 5)”, for which the “apparent KD of MS2 coat protein” value is, setting by setting: under setting [1], 145 nM; under setting [2], 114 nM; under setting [3], 140 nM.

As for “GUAGAGUCAGGAUAUACGAGAUCGAAAGAUCGGUAGUCCUUACAUGAGGAUCACCCAUGUAGAAGGGACUCUAC [Omei mod 7 to Eli's favorate candidate (ch.parushev)] (Eterna round: R97, puzzle: Exclusion 2)”, the “apparent KD of MS2 coat protein” value is, setting by setting: (input ligand: FMN 200 uM) 118 nM; (input ligand: none) 15.8 nM.

For the sequence “UAUAUAUAGUAAGGAUAUGUAUAUAUAUUAUAAACAGAAGGUACUGACAUGAGGAUCACCCAUGUUUUAGUGUGGGCAUGUAGA [JMF's solution 58] (Eterna round: R96, puzzle: Exclusion NG 1)”, the “apparent KD of MS2 coat protein” value under setting [4] came to 53.8 nM.

For “UGUUGUUACGCAGGAUAUGUAUGAGGAUCACCCAUAAGAGUUGAUGUACCAUGAGGAUCACCCAUGUAGAAGGGCGGGUUAACA [pwkr exNG2 2xF5 1xFMN.9] (Eterna round: R96, puzzle: Exclusion NG 2)”, the “apparent KD of MS2 coat protein” value was found to be 365 nM (input ligand: FMN 200 uM), 194 nM under setting [4] and 234 nM (input ligand: none).

As for “CCGGCUUAGCAGGAUAUAGGAGUCGAUAGACACCUAGAAGGGCUAACAUGAGGAUCACCCAUGUGUCCUACCGG [Mod of Eli 2 - Jieux - Exclusion 6] (Eterna round: R97, puzzle: Exclusion 6)”, the “apparent KD of MS2 coat protein” value (input ligand: FMN 200 uM) amounted to 102 nM and the “apparent KD of MS2 coat protein” value (input ligand: none) is 47.6 nM.

Consider “CCGAACAUAGGAUAUACAUGAGGAUCACCCAUGUAUAUAAAAGGGUGUUCCAACUAAAGUAGAAGGAUGUAAGG [ExFusion 1 - Jieux - Exclusion 3] (Eterna round: R97, puzzle: Exclusion 3)”, for which the “apparent KD of MS2 coat protein” value came out at 36.5 nM (input ligand: FMN 200 uM) and 40.6 nM (input ligand: none).

Consider “ACAAGCUUUUUGCUCGAAGAGUAGAAACGUGAGAGCGAAACAUGAGGAUCACCCAUGUAAAGGCAGUAGGUGAAGAU [JR_SV3TOV2_Sub024] (puzzle: Sensor v3, turn-off variant 2)”, for which the “apparent KD of MS2 coat protein” value is, setting by setting: under setting [1], 39.8 nM; under setting [2], 57.4 nM; under setting [3], 57.2 nM.

Take “AAGCCACAUGAGGAUCACCCAUGUUAGGAUAUACGCAUGCAGACACGCACGGAUGCAAGUAGAAGGAACCAUGC [Design #5] (Eterna round: R97, puzzle: Exclusion 1)”: the “apparent KD of MS2 coat protein” value (input ligand: FMN 200 uM) is 16.8 nM and the “apparent KD of MS2 coat protein” value (input ligand: none) amounted to 15.9 nM.

As for “CGUGGACUAGGAUAUUUACGAGGCUACAUGAGGAUCACCCAUGUGUUCUCGAGUACCAUGAAAGAAGGAGUAGCGA [Betiatte] (puzzle: Exclusion 5)”, the “apparent KD of MS2 coat protein” value under setting [2] stood at 12 nM.

“GGGCUCGGUGUGAGGAUAUGCUCGGGUAAACUCGGGCAGAAGGCACAUGAGGAUCACCCAUGUAAGUCGGGCUC [-28.5, -27.4 kcal, A 23%, 4bis-4] (Eterna round: R97, puzzle: Brourd's mod of Exclusion 4)”: the “apparent KD of MS2 coat protein” value by setting is: (input ligand: FMN 200 uM) 18.6 nM; (input ligand: none) 18 nM.

With “GGUACUAUCACCUGAGUGGUAGUGCAACAAGCUUGUGAUACAUGAGGAUCACCCAUGUCCUCAUUUGCUCGUCUUAU [JL-sv3-2.25 JL mod] (Eterna round: R96, puzzle: Sensor v3, turn-off variant 2)”, the “apparent KD of MS2 coat protein” value came to 237 nM (input ligand: FMN 200 uM), 858 nM under setting [4] and 245 nM (input ligand: none).

In the case of “ACUUAUGCGGAGGAUAUUUAACGUAGCGAAAGUAAAGAAGGCCGAACAUGAGGAUCACCCAUGUGGAGGUGUAA [Eternabot (L1) Solution 24] (Eterna round: R97, puzzle: Exclusion 6)”, the “apparent KD of MS2 coat protein” value runs as follows: (input ligand: FMN 200 uM) 92.5 nM; (input ligand: none) 23 nM.

With “GAGACAUGAGGAUCACCCAUGUGUGGUCCAAGGCAUGUCGUCGAGGAUAUGCAGGACGUCGUCUUGCAGAAGGCGACUAAAUAC [Teatarti] (Eterna round: R96, puzzle: Exclusion NG 3)”, the “apparent KD of MS2 coat protein” value is, setting by setting: (input ligand: FMN 200 uM) 17.8 nM; under setting [4], 19.5 nM; (input ligand: none) 105 nM.

Turning to “AUCAUGUAAGGAUAUCUUACAUGUGACUUCGGUCACAGUUAAGAGAAGGUACAUGAGGAUCACCCAUGUAUAAC [Ex4-3: 37] (puzzle: Exclusion 4)”, the “apparent KD of MS2 coat protein” value under setting [2] was determined as 25.3 nM.

Consider “UCGCUGCGAGGAUAUACAUGAGGAUCACCCAUGUGCGGGUCCGGGUCUUUGUCCAUUAGUAGAAGGCGCAGUGA [JL Laongeedie mod 5] (puzzle: Exclusion 3)”, for which the “apparent KD of MS2 coat protein” value under setting [2] is 225 nM.

In the case of “CCGGAAGUAGAGGAUAUAGGAGUCGAUAGACUCCUAGAAGGCUAUACAUGAGGAUCACCCAUGUGUCCUACCGG [Fiskers Ex 6 - 68] (puzzle: Exclusion 6)”, the “apparent KD of MS2 coat protein” value under setting [2] turned out to be 19.1 nM.

Take “GAAAAGGUAGGAUAUACGAAAAAAAAGGGUAGAGAAAAAACACAUGAGGAUCACCCAUGUAGAAGGACCAAAAG [salish99_ex2_r3_023] (puzzle: Exclusion 2)”: the “apparent KD of MS2 coat protein” value reads like this: under setting [1], 84.8 nM; under setting [2], 27.1 nM; under setting [3], 26.7 nM.

Turning to “UUCAGGAGUCGAGGAUAUUUGCAGACGACAUGAGGAUCACCCAUGUGGUUAGCAUAGUCUUCAGCAGAGAAGGCGACCAACGAG [Eternabot solution 20] (Eterna round: R96, puzzle: Exclusion NG 2)”, the “apparent KD of MS2 coat protein” value runs as follows: (input ligand: FMN 200 uM) 171 nM; under setting [4], 40 nM; (input ligand: none) 40.3 nM.

Take “CUUCACCCACCUGAGCUCACCCACAUACCUGCUCAGGUGACAUGAGGAUCACCCAUGUUUUUUGCCCGUCUUAUCUU [Soteonge] (puzzle: Sensor v3, turn-off variant 2)”: the “apparent KD of MS2 coat protein” value runs as follows: under setting [1], 39.4 nM; under setting [2], 229 nM; under setting [3], 45.6 nM.

Consider “GGGUGACAUGAGGAUCACCCAUGUCAGGAUAUGGGCCCGGGCCCGAAAGGGUUUGGGCCCAGAAGGGACUGCCC [-44.5, -43.5 kcal, 22%A (-3 GC series)] (Eterna round: R97, puzzle: Exclusion 1)”, for which the “apparent KD of MS2 coat protein” value turned out to be 145 nM (input ligand: FMN 200 uM) and 50.3 nM (input ligand: none).

In the case of “UUUAAUCGUGACAUGGGUGACAUGAGGAUCACCCAUGUCACAAGCUUCUCGCUCGUCUUAUAAUUAACCCAUGUCAC [LRO Sensor-off var1-13 mod of Stov1-13-A1 by Brourd] (Eterna round: R97, puzzle: Sensor, turn-off variant 1)”, the “apparent KD of MS2 coat protein” value (input ligand: FMN 200 uM) worked out at 17.3 nM and the “apparent KD of MS2 coat protein” value (input ligand: none) worked out at 18.7 nM.

For “AAGAGAGCAGGAUAUCGGUUUUGCGACAUGAGGAUCACCCAUGUGAGCCGAGUCCAACGCCGAGAAGGGCUAAAAU [Onesis] (puzzle: Exclusion 5)”, the “apparent KD of MS2 coat protein” value under setting [2] is 53.3 nM.

Take “GGAAGGAGUGUCAGGAUAUCCGGAGGGAAACCUCCGGAGAAGGGACAUGAGGAUCACCCAUGUAGAGGAAGGAG [AK-MS2ROC-r4-Bmoexclusion4-9] (Eterna round: R97, puzzle: Brourd's mod of Exclusion 4)”: the “apparent KD of MS2 coat protein” value (input ligand: FMN 200 uM) was 561 nM and the “apparent KD of MS2 coat protein” value (input ligand: none) came out at 441 nM.

For “CUUUGCACGCUGCGGUCCUACAUGAGGAUCACCCAUGUGGUCUGGUGGCGUGGGUCGCCGGACUUGGCUCGUCUUGG [salish99_S_TOV1_R5_042] (Eterna round: R97, puzzle: Sensor, turn-off variant 1)”, the “apparent KD of MS2 coat protein” value stood at 15.1 nM (input ligand: FMN 200 uM) and 15.7 nM (input ligand: none).

On to “CUCCGGCGUGUAGGAUAUGGUUCCGUUUCGGUUCCAGAAGGACAUGAGGAUCACCCAUGUACAUGUCGUCGGUCGUCACCGGGC [salish99_ExNG1_r04_215] (Eterna round: R96, puzzle: Exclusion NG 1)”, for which the “apparent KD of MS2 coat protein” value is, setting by setting: (input ligand: FMN 200 uM) 120 nM; under setting [4], 21.7 nM; (input ligand: none) 35.4 nM.

On to “UAUCAUCAUGUAGGAUAUGCGUGGCGAAGCUAUGCAGAAGGACAUGAGGAUCACCCAUGUUCUUGCGUCUGCGUACAGAUGCAA [Mat - Exclusion NG 1 - Mod of JL - D71] (Eterna round: R96, puzzle: Exclusion NG 1)”, for which the “apparent KD of MS2 coat protein” value came out at 218 nM (input ligand: FMN 200 uM), 38 nM under setting [4] and 66.7 nM (input ligand: none).

As for “ACAUGAGGAUCACCCAUGUGACCACGAUGGCUGAUGUAAAGACAGGAUAUGUGUGAAUAUCUAACACAGAAGGGUCUUGACUGG [Deportation 56 - Jieux - Exclusion NG 3] (Eterna round: R96, puzzle: Exclusion NG 3)”, the “apparent KD of MS2 coat protein” value (input ligand: FMN 200 uM) is 33.8 nM, the “apparent KD of MS2 coat protein” value under setting [4] was determined as 32.6 nM and the “apparent KD of MS2 coat protein” value (input ligand: none) was 33.2 nM.

Consider “CUUGACUGAGGAUAUACGAGAUCGAAAGAUCGGCGAUCCCUACAUGAGGAUCACCCAUGUAGAAGGCAGUCAAG [Mod 14 - Jieux - Exclusion 2] (Eterna round: R97, puzzle: Exclusion 2)”, for which the “apparent KD of MS2 coat protein” value reads like this: (input ligand: FMN 200 uM) 70.6 nM; (input ligand: none) 17 nM.

On to “AAGCUAUCUGUAGGAUAUACAACUGAUCUCGAGGUAGAAGGACAUCCAGUUACGCCAACAUGAGGAUCACCCAUGUGGAUCUUG [Eternabot solution 39] (Eterna round: R96, puzzle: Exclusion NG 1)”, for which the “apparent KD of MS2 coat protein” value reads like this: (input ligand: FMN 200 uM) 15.2 nM; under setting [4], 12.9 nM; (input ligand: none) 18.4 nM.

“GUGAGUGGUCAGGAUAUGCUGUACAAAAGUACAGCAGAAGGGAUUACAUGAGGAUCACCCAUGUUUACUUCAUG [Omei Ex6 B4] (Eterna round: R97, puzzle: Exclusion 6)”: the “apparent KD of MS2 coat protein” value came to 125 nM (input ligand: FMN 200 uM) and 90.2 nM (input ligand: none).

The values are drawn from the supplement of paper PMC9170038.
